Bounds are passed on as bounds.

Test [1] deals with mesothelin on the cell membrane of the pancreatic cancer cell line AsPC-1 (mesothelin-overexpressing cell line) (human) (UniProt Q13421). Description: flow cytometry, phage on AsPC-1 cells against K562 control cells, anti-M13-FITC. (In general: A flow cytometer gives signals particle by particle.)
For test [2] the target is unchanged. As to the kind of experiment: flow cytometry, phage on AsPC-1 cells, anti-M13-FITC.

B1: MSLN3 phage clone (scFv displayed on phage, KBIO human synthetic scFv phage display library KscFv-I) (scFv, V domains shown, not shown: small tags and cut ends; large carriers)
VH: EVQLVESGGGLVQPGGSLRLSCAASGFTFSDYAMSWVRQAPGKGLEWVSAISSSGGTTYYADSVKGRFTISRDNSKNTLYLQMNSLRAEDTAVYYCAKEEEGEWREYFDVWGQGTLVTVSS
VL: DIQMTQSPSSLSASVGDRVTITCRASQSISSYLNWYQQKPGKAPKLLIYATSTLQSGVPSRFSGSGSGTDFTLTISSLQPEDFATYYCQQSYTFPYTFGQGTKVEIK
In the case of B1, the figures for the relative peak shift value in test [1] and in test [2] were 23.8% and greater than 3%, respectively.

Source of the values: patent US20240033291A1.
